Measured values published in US20210332142A1 (Genentech, published 2021).
Where two headings read alike, the source gives them in different places.

Key:
[1] = biological target: T1, recombinant cyno Tie2 extracellular domain (cynomolgus monkey, UniProt Q02763 23-748 (human entry)); experiment: SPR, IgG captured, 37C
T1 construct: also called Recombinant cyno Tie2 ECD; cy Tie2
T1 chain: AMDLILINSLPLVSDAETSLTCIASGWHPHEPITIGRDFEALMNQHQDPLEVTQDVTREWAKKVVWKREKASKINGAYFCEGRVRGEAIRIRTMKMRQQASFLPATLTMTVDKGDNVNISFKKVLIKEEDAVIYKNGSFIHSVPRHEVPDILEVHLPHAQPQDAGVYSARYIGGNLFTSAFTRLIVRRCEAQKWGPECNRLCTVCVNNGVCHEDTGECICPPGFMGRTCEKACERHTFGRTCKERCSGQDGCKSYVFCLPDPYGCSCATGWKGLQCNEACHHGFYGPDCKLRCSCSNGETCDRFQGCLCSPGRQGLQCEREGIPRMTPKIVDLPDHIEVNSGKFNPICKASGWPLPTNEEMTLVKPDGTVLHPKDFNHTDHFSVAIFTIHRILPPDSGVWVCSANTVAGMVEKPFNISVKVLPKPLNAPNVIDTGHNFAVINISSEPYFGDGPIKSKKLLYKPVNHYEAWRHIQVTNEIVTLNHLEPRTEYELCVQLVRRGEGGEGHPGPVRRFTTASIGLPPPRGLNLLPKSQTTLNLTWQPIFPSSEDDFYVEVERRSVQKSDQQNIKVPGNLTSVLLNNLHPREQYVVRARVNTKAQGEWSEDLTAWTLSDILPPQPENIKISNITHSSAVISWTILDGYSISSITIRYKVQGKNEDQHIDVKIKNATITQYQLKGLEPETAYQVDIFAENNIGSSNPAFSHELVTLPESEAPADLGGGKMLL
Protocol: (§1) A human antibody capture chip was prepared using a Series S CM5 chip (GE Life Sciences), a human antibody capture kit (GE Life Sciences) and an amine coupling kit (GE Life Sciences). Antibodies diluted to 5 μg/ml in running buffer (10 mM HEPES, 150 mM NaCl, 0.05% Tween 20, 1 mM EDTA, pH 7.4) were non-covalently captured using a contact time of 20 seconds and a flow rate of 10 μl/minute. Binding to 300 nM and 1500 nM recombinant Tie2 was analyzed at 37° C. using a Single Cycle Kinetics method with a contact time of 60 seconds, a dissociation time of 120 seconds and a flow rate of 50 μl/min. Between cycles, the surface was regenerated by a 30 second injection of 3M MgCl₂ at a flow rate of 30 μl/min. Values for antibody capture levels and analyte binding levels were obtained from the Report Point Table (Biacore Evaluation Software v3.0, GE Life Sciences). […] Table 16: Experiment A; Table 17: Experiment B.

[2] = biological target: T2, recombinant human Tie2 extracellular domain (human, UniProt Q02763 23-748); experiment: SPR, IgG captured, 37C
T2 construct: whole entry named; also called Recombinant human Tie2 ECD; hu Tie2
Protocol: as §1
Target sequence in this assay (Q02763 23-748 limits assumed): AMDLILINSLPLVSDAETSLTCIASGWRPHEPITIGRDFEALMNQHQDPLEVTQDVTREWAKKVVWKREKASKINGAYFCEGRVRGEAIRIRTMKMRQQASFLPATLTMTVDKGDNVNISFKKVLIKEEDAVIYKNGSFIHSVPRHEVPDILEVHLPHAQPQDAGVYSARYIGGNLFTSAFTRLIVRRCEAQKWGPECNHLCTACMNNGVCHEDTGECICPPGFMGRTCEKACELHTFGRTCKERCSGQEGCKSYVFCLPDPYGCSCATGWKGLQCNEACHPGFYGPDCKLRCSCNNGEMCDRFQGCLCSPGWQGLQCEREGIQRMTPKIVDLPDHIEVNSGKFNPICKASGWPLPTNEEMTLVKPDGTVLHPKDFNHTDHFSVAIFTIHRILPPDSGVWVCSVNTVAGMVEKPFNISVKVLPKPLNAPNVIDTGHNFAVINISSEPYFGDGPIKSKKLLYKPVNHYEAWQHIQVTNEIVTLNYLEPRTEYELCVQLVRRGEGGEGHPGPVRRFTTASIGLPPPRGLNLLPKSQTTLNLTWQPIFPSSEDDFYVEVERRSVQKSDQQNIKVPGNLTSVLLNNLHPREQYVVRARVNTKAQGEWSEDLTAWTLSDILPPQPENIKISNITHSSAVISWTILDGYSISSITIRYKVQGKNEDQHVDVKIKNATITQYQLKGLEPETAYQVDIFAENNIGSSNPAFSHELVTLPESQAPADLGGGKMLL

[3] = biological target: T1, recombinant cyno Tie2 extracellular …; experiment: SPR, IgG captured, 37C
Protocol: as §1

[4] = biological target: T2, recombinant human Tie2 extracellular …; experiment: SPR, IgG captured, 37C; remark: listed apart in the source
Protocol: as §1
Target sequence in this assay (Q02763 23-748 limits assumed): as above

[5] = biological target: T3, mouse Tie2 full extracellular domain fused to mIgG2a Fc (mouse, UniProt Q02858 23-746); experiment: phage ELISA
T3 construct: extracellular domain; also called mFull.Fc; not shown: Fc region of mIgG2a, fused at the C-terminus
Protocol: Clones from the fourth round were screened for Tie2 binding and specificity by ELISA. Screening ELISAs were carried out by coating the wells of a 96-well microtiter plate with Tie2 protein or irrelevant protein at 65 ul per well (1 ug/ml in coating buffer) at 4° C. overnight. In a 96-tube plate, colonies from the fourth round were grown overnight at 37° C. in 400 ul 2YT media with 50 ug/ml carbenicillin and helper phage K07. The plate was spun down at 3000 rpm for 10 min. 30 ul of the culture supernatant was added with 60 ul of ELISA buffer (PBS with 0.5% BSA and 0.05% Tween20) to the Tie2-coated plate and incubated at room temperature for 1 hr. Plates were washed with PBS—0.05% Tween20 and 100 ul/well of horseradish peroxidase (HRP)-conjugated anti-M13 antibody (1/5000 dilution in PBS plus 0.5% BSA and 0.05% Tween20) at room temperature for 30 min (Sidhu et al., supra). The wells were washed with PBS—0.05% Tween20 prior to 100 ul/well of a 1:1 ratio of 3,3′,5,5′-tetramethylbenzidine (TMB) peroxidase substrate and Peroxidase Solution B (H₂O₂) ((Kirkegaard-Perry Laboratories (Gaithersburg, Md.)) being added per well and incubated for 5 min at room temperature. The reaction was stopped by adding 100 ul 1M phosphoric Acid (H₃PO₄) per well and the OD of wells was determined using a standard ELISA plate reader at 450 nm.

omalizumab = biological target: T4, omalizumab; experiment: phage ELISA
T4 construct: Used as irrelevant coated protein; also called irrelevant Fc-containing protein; not shown: the constant regions

rat Tie2ECD.flag = biological target: T5, rat Tie2ECD.flag (rat, UniProt A0ABK0L6J5 19-740); experiment: Biacore, hIgG captured, 25C
T5 construct: extracellular domain; also called rTie2.flag; not shown: C-terminal Flag tag
Protocol: (§2) Monovalent affinities of selected anti-Tie2 hIgGs were determined using a Biacore T200 instrument (GE Life Sciences). Anti-humanFc was covalently immobilized on a Series S CM5 Biacore sensor chip to enable non-covalent capture of anti-Tie2 antibodies and binding of human or rat Tie2ECD.flag was monitored in real time at 25° C. using a multi-cycle kinetics experiment format. Between cycles, the surface was regenerated with 3 M MgCl₂. Monovalent affinities were determined by kinetic analysis, using Biacore Evaluation Software (GE Life Sciences) to fit a 1:1 binding model to the data.

human Tie2ECD.flag = biological target: T6, human Tie2ECD.flag (human, UniProt Q02763 23-748); experiment: Biacore, hIgG captured, 25C
T6 construct: also called hTie2.flag; not shown: C-terminal Flag tag
T6 sequence (Q02763 23-748 limits assumed): as above
Protocol: as §2

[6] = biological target: T1, recombinant cyno Tie2 extracellular …; experiment: SPR, IgG captured, steady state analysis
Protocol: (§3) Binding to recombinant human and cyno Tie2 was analyzed using a high performance multi-cycle kinetics format with a contact time of 60 seconds, a dissociation time of 60 seconds, a flow rate of 100 μl/minute and Tie2 concentrations of 5 μM, 2.5 μM, 1.25 μM, 625 nM, 313 nM and 156 nM. Tie2 concentrations of 5 μM, 2.5 μM and 1.25 μM were injected twice. Results were analyzed using Biacore T200 Evaluation Software v3.0 (GE Life Sciences). Results from all three surface densities were analyzed together using the 1:1 Binding model with multiple Rmax and the RI parameter set to zero.

[7] = biological target: T2, recombinant human Tie2 extracellular …; experiment: SPR, IgG captured, steady state analysis
Protocol: as §3

[8] = biological target: T2, recombinant human Tie2 extracellular …; experiment: SPR multi-cycle kinetics, IgG captured, kinetic analysis
Protocol: Binding to 300 nM and 1500 nM recombinant Tie2 was analyzed at 37° C. using a Single Cycle Kinetics method with a contact time of 60 seconds, a dissociation time of 120 seconds and a flow rate of 50 μl/min. Between cycles, the surface was regenerated by a 30 second injection of 3M MgCl₂ at a flow rate of 30 μl/min. Values for antibody capture levels and analyte binding levels were obtained from the Report Point Table (Biacore Evaluation Software v3.0, GE Life Sciences). […] Table 16: Experiment A; Table 17: Experiment B.
as §3

[9] = biological target: T1, recombinant cyno Tie2 extracellular …; experiment: as above
Protocol: as §3

[10] = biological target: T1, recombinant cyno Tie2 extracellular …; experiment: SPR multi-cycle kinetics, IgG captured, kinetic analysis; cyno Tie2; kinetic analysis
Protocol: as §3

[11] = biological target: T2, recombinant human Tie2 extracellular …; experiment: SPR multi-cycle kinetics, IgG captured, kinetic analysis; human Tie2; kinetic analysis
Protocol: as §3

Binder	Normalized Binding Signal, 300 nM [1]	Normalized Binding Signal, 1500 nM [1]	Normalized Binding Signal, 300 nM [2]	Normalized Binding Signal, 1500 nM [2]	Normalized Binding Signal, 300 nM [3]	Normalized Binding Signal, 1500 nM [3]	Normalized Binding Signal, 300 nM [4]	Normalized Binding Signal, 1500 nM [4]	binding result [5]	binding result (omalizumab)	Kd (rat Tie2ECD.flag)	Kd (human Tie2ECD.flag)	further results
Tie2.1.M100cY (antibody, IgG1, name in Kabat numbering, V domains shown, hIgG1) VH: EVQLVESGGGLVQPGGSLRLSCAASGFTFSNTDISWVRQAPGKGLEWVGRISPSDGNTYYADSVKGRFTISADTSKNTAYLQMNSLRAEDTAVYYCARRTRWASWAYDYWGQGTLVTVSS VL: DIQMTQSPSSLSASVGDRVTITCRASQDVSTAVAWYQQKPGKAPKLLIYSASFLYSGVPSRFSGSGSGTDFTLTISSLQPEDFATYYCQQSYTTPPTFGQGTKVEIKR	0.13	0.45	0.15	0.47	0.13	0.44	0.15	0.46					
Tie2.33 (antibody, IgG1, V domains shown, hIgG1 in later assays; also called Ab33; T2.33) VH: EVQLVESGGGLVQPGGSLRLSCAASGFTFSGSWISWVRQAPGKGLEWVARINPYDGNTYYADSVKGRFTISADTSKNTAYLQMNSLRAEDTAVYYCARNNRFPTWFDYWGQGTLVTVSS VL: DIQMTQSPSSLSASVGDRVTITCRASQDVSTAVAWYQQKPGKAPKLLIYSASFLYSGVPSRFSGSGSGTDFTLTISSLQPEDFATYYCQQSYTTPPTFGQGTKVEIKR									binds	no binding			
Tie2.38 (antibody, IgG1, V domains shown, hIgG1 in later assays; also called Ab38) VH: EVQLVESGGGLVQPGGSLRLSCAASGFTFSNSAIHWVRQAPGKGLEWVASITPYNGYTYYADSVKGRFTISADTSKNTAYLQMNSLRAEDTAVYYCARRQSYSYVMDYWGQGTLVTVSS VL: DIQMTQSPSSLSASVGDRVTITCRASQDVSTAVAWYQQKPGKAPKLLIYSASFLYSGVPSRFSGSGSGTDFTLTISSLQPEDFATYYCQQSYTTPPTFGQGTKVEIKR									binds	no binding	2200 nM	376 nM	
Tie2.34 (antibody, IgG1, V domains shown, hIgG1 in Biacore; also called Ab34) VH: EVQLVESGGGLVQPGGSLRLSCAASGFTFSDTYIHWVRQAPGKGLEWVAVIYPDNGATYYADSVKGTYYADSVKGRFTISADTSKNTAYLQMNSLRAEDTAVYYCAREFACARCVYGMDYWGQGTLVTVSS VL: DIQMTQSPSSLSASVGDRVTITCRASQDVSTAVAWYQQKPGKAPKLLIYSASFLYSGVPSRFSGSGSGTDFTLTISSLQPEDFATYYCQQSYTTPPTFGQGTKVEIKR											57 nM	155 nM	
Tie2.1.M100cF (antibody, IgG1, V domains shown, hIgG1 in the SPR and binning assays) VH: EVQLVESGGGLVQPGGSLRLSCAASGFTFSNTDISWVRQAPGKGLEWVGRISPSDGNTYYADSVKGRFTISADTSKNTAYLQMNSLRAEDTAVYYCARRTRWASWAFDYWGQGTLVTVSS VL: DIQMTQSPSSLSASVGDRVTITCRASQDVSTAVAWYQQKPGKAPKLLIYSASFLYSGVPSRFSGSGSGTDFTLTISSLQPEDFATYYCQQSYTTPPTFGQGTKVEIK	0.14	0.46	0.16	0.48	0.12	0.42	0.14	0.44					Kd [6]: 2000 nM; Kd [7]: 2000 nM; koff [8]: 0.39 s⁻¹; kon [8]: 220000 M⁻¹ s⁻¹; koff [9]: 0.37 s⁻¹; kon [9]: 190000 M⁻¹ s⁻¹; Kd [10]: 2000 nM; Kd [11]: 2000 nM
